± gives the standard error. This sample holds only a part of the variants without activity.
B1: glmS ribozyme (parent)
chain: AUAAAAGCGCCAGAACUACAGAAAUGUAGUUGACGAGGAGGAGGUUUAUCGAAUUUUCGGCGGAUGCCUCCAAA

Variants of: B1
Assay: self-cleavage kobs at 10000 uM GlcN6P; higher = faster cleavage; RNA array
Settings: with glucosamine-6-phosphate
Procedure, shortened: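 kobs was derived by fitting per-tile medians to one- or two-exponential decays after normalising signals to baseline and to non-cleaving reference variants. Those signals came from barcoded ribozyme variants transcribed in situ by E. coli RNA polymerase on sequenced MiSeq chips, followed through a hybridised Cy3 probe at 37 °C and imaged over ~14 h. Glucosamine-6-phosphate (40 μM to 10 mM) in HEPES/KCl/Mg(OAc)2 buffer was flowed in. Weighted Michaelis–Menten fits across concentrations then gave kcat and KM.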

Variant	self-cleavage kobs at 10000 uM GlcN6P [s⁻¹]
U30A A39C	0.00136 ± 0.00028
A15C C16G U65G	0.000462 ± 8e-05
G29A U56G C67A	0.000277 ± 5.7e-05
U47A C50G G63U U69G	5.11e-05 ± 1.5e-05
U31C A39C G40U G60U	< 1e-05
U31G U55G C58U	7.92e-05 ± 1.7e-05
G7A C16U	2.32e-05 ± 1.2e-05
U54A G60A	3.42e-05 ± 1.5e-05
G29U U46G C61G G66A	< 1e-05
C8U U47G G63A C70A	0.000324 ± 0.00012
A12C C16U A52U	0.000334 ± 6.5e-05
G13U U54G C67U	0.000238 ± 4.9e-05
A6G A42U G59U	< 1e-05
U57C C58A	2.32e-05 ± 9.2e-06
A6U G9U A52U	< 1e-05
A12G U54C	0.001 ± 0.00011
A15G G66C C68U	0.000127 ± 2.6e-05
A12C G29C A39U	0.000876 ± 0.0002
C34U U45A C50A	< 1e-05
G13U U55G C67U	0.0003 ± 6.1e-05
A33G G40U A52G C58A	< 1e-05
A12C G60U C61U	< 1e-05

Variant	self-cleavage kobs at 10000 uM GlcN6P [s⁻¹]
G51C A52U U57C G59U	< 1e-05
G29A U30C G60A	< 1e-05
C50U C58A C67U	< 1e-05
A6G C11U C34A	< 1e-05
U31C A42C A64G	< 1e-05
C10G C34G A36G G44A U45G U57C C61A C70A	< 1e-05
A6C U56A C68G	< 1e-05
A36U U49G G63C	< 1e-05
G9A A53G G66U	< 1e-05
G13C A15C U49C	< 1e-05
A33C A52C U57G G63A	< 1e-05
G13U A39U C71U	0.000606 ± 0.00012
C11A G35C G41C	< 1e-05
C34A A36C G60A	< 1e-05
A15C U30G C68G	0.000435 ± 0.00015
A12U A33C U47C C67G	< 1e-05
A6U A33G G43C G60U	< 1e-05
G13A G38A A64G	< 1e-05
G29C U46G C67U	0.000125 ± 3.3e-05
A42U U65G U69G	0.00259 ± 0.00036
C11U A42C U69A	9.21e-05 ± 2.5e-05
A15G U30G U46C	0.000407 ± 0.0001

Variant	self-cleavage kobs at 10000 uM GlcN6P [s⁻¹]
G38U A52U C58U	< 1e-05
C16A U55A C67G	5.54e-05 ± 1.9e-05
G9U G59C G63C	< 1e-05
A12G U45A U55A	0.00202 ± 0.00039
A14U A53U C68U	0.00114 ± 0.00036
C16U G43C A64C C71G	< 1e-05
G7A G9C G40U	< 1e-05
G38U U45A C58A U65C	< 1e-05
C16G A33U G35U G63U A64C	< 1e-05
A23C C71A	0.00399 ± 0.00084
G29U U54A C68U	0.000427 ± 0.00018
G29C A36G G60C U69G	< 1e-05
A36G A42C G59U	< 1e-05
C11G G40C U54A C70U C71G	< 1e-05
C8A U56C C70G	< 1e-05
A14G G40C G41U	0.000186 ± 4e-05
A53U U65G C67U	0.00235 ± 0.00042
C11U G66U C71G	< 1e-05
A12U U54C G59U A64C	< 1e-05
A12U C16A C58A	7.98e-05 ± 1.6e-05
C11G G32U G41U G43U A52C C67A U69A	< 1e-05
C34A C67G C70A	< 1e-05

Variant	self-cleavage kobs at 10000 uM GlcN6P [s⁻¹]
A48G G66A	2.4e-05 ± 1.2e-05
A15U C70U C71U	6.65e-05 ± 1.8e-05
A14G A33U A39U	4.23e-05 ± 1.4e-05
A42C G51A G63U	< 1e-05
A15G G66U C70A	8.77e-05 ± 1.7e-05
A15U G32C C71U	8.58e-05 ± 2e-05
G29A U31A U45G	0.000217 ± 4.5e-05
G13A C50G C70G	9.61e-05 ± 2e-05
G35U G41U A42C G62C C70A	< 1e-05
A39C U57A C58G G63U	< 1e-05
C10U G60U A64U	< 1e-05
C10G U30A G37C A39U G62A	< 1e-05
G9A C10G U69G	0.000596 ± 0.00021
G43A U46A G59C	< 1e-05
C10A U46A A48G	< 1e-05
U56A C67U C71G	5.21e-05 ± 8.7e-06
U30G A42G G62U	< 1e-05
A53G U56G C71G	0.00022 ± 5.2e-05
A14U U30C G38C	< 1e-05
A12G C61A	< 1e-05
G38A C61A C71U	< 1e-05
G32U U54C C70A	4.27e-05 ± 1.5e-05

Variant	self-cleavage kobs at 10000 uM GlcN6P [s⁻¹]
G66A C68U C71A	0.000105 ± 1.9e-05
U30C A53G G66A	8.63e-05 ± 2.1e-05
C34G G59C C61A A64G	< 1e-05
G13U G40U C61U C68U	< 1e-05
G38C A39U U46C	< 1e-05
A39G C67A C68A	6.69e-05 ± 1.7e-05
G35C G51C C58A	< 1e-05
G29A A52G C67G	5.89e-05 ± 1.1e-05
C10G G29U U55C	< 1e-05
A15U G32U G66A	0.000174 ± 4e-05
A15C G29C G59A U65A	< 1e-05
A12C C16G G37A C67A C71U	< 1e-05
C8G C10G G40U A52C	< 1e-05
U49A U56A A64C	< 1e-05
G35A A52C U55C	< 1e-05
C8U G29U G32C G35C A36U C50A A52U	< 1e-05
G7C C11A G13A	< 1e-05
C16A G29A C50A G59A C71U	< 1e-05
A15G G29C G44C	< 1e-05
G7U G26U A52C	< 1e-05
C8U C58G U69G	0.000536 ± 0.00016
C16A U49G	2.8e-05 ± 1.1e-05

Variant	self-cleavage kobs at 10000 uM GlcN6P [s⁻¹]
A6C G37A C68A	< 1e-05
C8G A14C G38A U56A G59U	< 1e-05
C11G G13C G44A	< 1e-05
U31A C61G C71U	< 1e-05
G13C G38A G43C C61U	< 1e-05
A15C A33G A48C A64U	< 1e-05
C16U A33G A36C U57G C58G	7.07e-05 ± 2e-05
G44C U55C U57C G59U	< 1e-05
G29C U69C C71U	4.54e-05 ± 2.1e-05
U45A A52U C61A	< 1e-05
A12U U30C G32A A52U U65G C70G	< 1e-05
A33C U45C U65C	< 1e-05
G38U A39G A42C A48U	< 1e-05
A6C U31A A64C C71G	< 1e-05
G9A A12G A36C G38C	< 1e-05
U30G U49G G63C	< 1e-05
G9U A14U	< 1e-05
C61A U69C	< 1e-05
A14G A36C A42U	< 1e-05
A6U A14G A36U A48U G63U	< 1e-05
G43U U46G C50U C58A	< 1e-05
U30G A33C A48C C71U	< 1e-05

Reference: the supplement of paper PMC7125110
